From patent publication US20240002528A1 (University of Texas, published 2024) come the findings set out here.

Assay [1] concerns the target T1, full-length human cystinosin-LKG with a C-terminal Flag tag (human, UniProt O60931-2 23-400, limits assumed).
T1 construct: Expressed in HEK-293S GnTI- cells and purified in DDM then digitonin; It was reconstituted in amphipols for immunisation; also called recombinant human Cystinosin; wild-type (WT) human Cystinosin; not shown: C-terminal Flag tag
T1 sequence (looked up): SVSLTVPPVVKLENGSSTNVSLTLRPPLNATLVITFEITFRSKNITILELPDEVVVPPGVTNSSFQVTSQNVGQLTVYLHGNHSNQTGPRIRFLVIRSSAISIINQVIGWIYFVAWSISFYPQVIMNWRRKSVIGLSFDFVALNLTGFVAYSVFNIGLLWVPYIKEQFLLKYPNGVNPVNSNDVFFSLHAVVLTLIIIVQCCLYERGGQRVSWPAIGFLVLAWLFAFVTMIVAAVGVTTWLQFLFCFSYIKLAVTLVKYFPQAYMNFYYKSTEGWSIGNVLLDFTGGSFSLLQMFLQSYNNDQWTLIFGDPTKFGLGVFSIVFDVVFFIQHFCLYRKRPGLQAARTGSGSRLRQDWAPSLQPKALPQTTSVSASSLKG
Kind of assay: size-exclusion chromatography (gel filtration) of Cystinosin incubated with Fab3H5 at a 1:1.5 molar ratio, with a polyacrylamide gel of the peak fraction; the sheet is marked pH7.0. How it is done:
To assemble Cystinosin-Fab^3H5 complex, purified Cystinosin was incubated with Fab^3H5 at a 1:1.5 molar ratio at 4° C. for 30 minutes. The mixture was then purified by SEC using the aforementioned buffer (FIG. 1A). Peak fractions were collected and concentrated to […]. The isolated complex was then used for functional and structural studies. In particular the complex was used in Cryo-EM studies.

Assay [2] deals with T1, full-length human cystinosin-LKG with a …. Briefly: ELISA and immunoprecipitation screen of hybridoma supernatants; ELISA and immunoprecipitation screen of hybridoma clone (folded cystinosin).

B1: Fab3H5 (Fab fragment of IgG-3H5 generated by papain cleavage) (Fab, V domains shown)
VH: EVMLVESGGGLVKPGGSLKLSCAASGFTFSNYAMSWVRQTPEKRLEWVAAISGNEGTYTYYPDSVRGRFTISRDNARNNLYLQISSLRSEDTALYYCARYGLVGALDFWGQGAS
VL: DIQMNQSPSTLSASLGDTITITCRASQNIDVWLNWYQQKPGDIPKLLIYEASNLHTGVPSRFSGSGSGTDFTLAISSLQPEDIATYYCLQGQDYPFTFGSGTK
notes: The reaction was stopped with iodoacetamide
Take B1: the binding result in assay [1] was “binds”.

B2: IgG-3H5, a mouse monoclonal anti-human Cystinosin antibody (antibody, V domains shown)
VH: EVMLVESGGGLVKPGGSLKLSCAASGFTFSNYAMSWVRQTPEKRLEWVAAISGNEGTYTYYPDSVRGRFTISRDNARNNLYLQISSLRSEDTALYYCARYGLVGALDFWGQGAS
VL: DIQMNQSPSTLSASLGDTITITCRASQNIDVWLNWYQQKPGDIPKLLIYEASNLHTGVPSRFSGSGSGTDFTLAISSLQPEDIATYYCLQGQDYPFTFGSGTK
notes: also called 3H5 antibody; monoclonal antibody 3H5
On to B2, for which the binding result in assay [2] is reported as “binds”.
